In the supplement of paper PMC12764529:
± gives the half width of the 95% confidence interval.

Columns and labels:
[1] = folding stability dG unfold (combined trypsin and chymotrypsin); higher = more stable
In short: (§1)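 How resistant each design was to proteolysis was captured as K50, inferred by Bayesian fitting of sequencing counts. Unfolding free energy was then derived relative to a sequence-predicted unfolded-state K50 and a shared folded-state K50, per protease or combined. Digestion used trypsin and chymotrypsin at 11 threefold-diluted concentrations plus a no-protease condition, on mini-proteins under 80 residues without cysteine in a PA-tagged cDNA display construct. Designs were kept only when AlphaFold2 dimer inter-PAE was above 15.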

[2] = folding stability dG unfold from chymotrypsin proteolysis; higher = more stable
In short: as §1

[3] = folding stability dG unfold from trypsin proteolysis; higher = more stable
In short: as §1

Sequence | folding stability dG unfold [1] | folding stability dG unfold [2] | folding stability dG unfold [3]
SAGGSAGGSSMPIYTVTVTYSDGTVRTYELTPEEIEAFAAEVPDAEVTELPPGKVEVTVKIPASAGGSAGGS [r20_231_JUSTAS] | 2.33 ± 0.07 kcal/mol | 2.49 ± 0.027 kcal/mol | 2.01 ± 0.096 kcal/mol
SAGGSAGGSSMTITVTDLVTGEPGEIPEELKAELAAEAEESGSAVTFEITTPDGKKYRAEITPSAGGSAGGS [r12_41_JUSTAS] | 1.1 ± 0.1 kcal/mol | 1.13 ± 0.088 kcal/mol | 0.928 ± 0.029 kcal/mol
SAGGSAGGSSPSSVSTYDIEFPDGTKIKITVTLGPGTPVVEITTLTESPPVKRVANTEEVKFESAGGSAGGS [r20_100_JUSTAS] | 0.696 ± 0.19 kcal/mol | 0.995 ± 0.041 kcal/mol | -0.0821 ± 0.059 kcal/mol
SAGGSAGGSSPVKQVTEVKDPHSSLPLLRTTETLVLPNGEVVTKVKFIDTKTGKSTEEIFTIPSAGGSAGGS [r20_229_JUSTAS] | 0.833 ± 0.089 kcal/mol | 1.02 ± 0.13 kcal/mol | 0.724 ± 0.046 kcal/mol
SAGGSAGGSSPVPVKVSANSVEPGESSSSNINIPKEALEKDSLTPEELKKILQKQGPNVTITGSAGGSAGGS [r20_221_JUSTAS] | -0.0407 ± 0.23 kcal/mol | 0.124 ± 0.049 kcal/mol | -0.423 ± 0.086 kcal/mol
SAGGSAGGSSQEREFTLPDPDGKDIKITMHQNPDGRPRAEIENKDGEPVKEFDSPDDIEDLLKSAGGSAGGS [r20_202_TrROS] | -0.0562 ± 0.22 kcal/mol | 0.168 ± 0.06 kcal/mol | -0.273 ± 0.2 kcal/mol
SAGGSAGGSSQRIKIEDIEPPPNGQWRVRIKMPNGKEREVTMPPDKLEIELPPNITDVSLWPVSAGGSAGGS [r20_194_TrROS] | 4.01 ± 0.33 kcal/mol | 3.91 ± 0.33 kcal/mol | 3.88 ± 0.16 kcal/mol
SAGGSAGGSSSSSVVTKPLPEEPLLVVTTTLPPSTPPGTTSTTTIIEPETGKVLETTDINIPSSAGGSAGGS [r12_564_JUSTAS] | 1.41 ± 0.11 kcal/mol | 0.954 ± 0.1 kcal/mol | 1.92 ± 0.13 kcal/mol
SAGGSAGGSSSSTLISVEPSPGIVTVERPLSLDPVPVVERRIMTVSPSSSLSVTETSVFPVSLLSAGGSAGG [r6_970_JUSTAS] | 1.02 ± 0.15 kcal/mol | 0.932 ± 0.24 kcal/mol | 0.818 ± 0.095 kcal/mol
SAGGSAGGSSSVTPVPETTLVTLTPPDGSPPVLGTVFPATGTMLLFYPDSVLLLPLGPGTTLFSAGGSAGGS [r12_536_JUSTAS] | 0.82 ± 0.079 kcal/mol | 0.503 ± 0.08 kcal/mol | 0.888 ± 0.034 kcal/mol
SAGGSAGGSSVEVTEDPSTGKLTVTVPPDLTSVTIKEKDKTITIPLPPGASITLPSGTVTVALSAGGSAGGS [r20_26_JUSTAS] | 0.935 ± 0.1 kcal/mol | -0.168 ± 0.1 kcal/mol | 1.56 ± 0.059 kcal/mol
SAGGSAGGSSVEYTFLSKNPEEAKKKFEEKIKEIEEKGEGKIEKAEFTIVSPDNPEYLKLISSSAGGSAGGS [r12_551_JUSTAS] | 0.259 ± 0.13 kcal/mol | 0.136 ± 0.26 kcal/mol | 0.213 ± 0.05 kcal/mol
SAGGSAGGSSVPEGWEVEREKVLEAEIVGEDGPVLRVRLYRVRVRPVDGPPRYFFELDVDDVDSAGGSAGGS [r12_544_TrMRF] | 2.74 ± 0.11 kcal/mol | 2.915 ± 0.027 kcal/mol | 2.38 ± 0.095 kcal/mol
SAGGSAGGSSVSVGVPSSYASVEVTVLKEEPGKGLVTVKVTTTVPGTGEVLTETVTIPRSELLSAGGSAGGS [r12_964_JUSTAS] | 0.828 ± 0.046 kcal/mol | 0.517 ± 0.043 kcal/mol | 1.01 ± 0.034 kcal/mol
SAGGSAGGSSYLVEVISRKKVKVGGKERYVVPVRIPDNGELVELVVSEDVAKNIKPGDVVVLSSAGGSAGGS [r12_382_TrMRF] | 0.0239 ± 0.12 kcal/mol | -0.00598 ± 0.12 kcal/mol | -0.00477 ± 0.058 kcal/mol
SAGGSAGGSTAKEIADKLGFDNVEIKPTKPVEQRKDPNGKWRRQYVYTIKIRNPDGREWTIPISAGGSAGGS [r12_221_TrROS] | 0.528 ± 0.13 kcal/mol | 0.449 ± 0.24 kcal/mol | 0.626 ± 0.093 kcal/mol
SAGGSAGGSTLTVEIQITDADGNTLTAKVTLTFEPAPPPPPPPTVERRTTTVDGKTVTEYRRLSAGGSAGGS [r12_128_TrROS_Hall] | 0.969 ± 0.13 kcal/mol | 1.04 ± 0.22 kcal/mol | 0.631 ± 0.18 kcal/mol
SAGGSAGGSTVEEELLEKAAAAHPPGTTLTVDVVIVDPNNPVPIGTRTVTITVNADGSYTVVDSAGGSAGGS [r20_151_JUSTAS] | 2.46 ± 0.09 kcal/mol | 2.65 ± 0.054 kcal/mol | 2.18 ± 0.07 kcal/mol

Sequence | folding stability dG unfold [1] | folding stability dG unfold [2] | folding stability dG unfold [3]
SAGGSAGGSTVTIEIPGFKTPEEIAKAIAEKTGKKVKEVKVEKDKKNKTYTITVTVDGKEITFSAGGSAGGS [r12_935_TrROS_Hall] | 0.805 ± 0.15 kcal/mol | 1.03 ± 0.087 kcal/mol | 0.333 ± 0.082 kcal/mol
SAGGSAGGSVEDVVKKENVEKAEVKPEPNPPVTLTKITSKNPNSNTTLTGTLVVVDPKNGLLLSAGGSAGGS [r12_133_JUSTAS] | 0.0723 ± 0.11 kcal/mol | 0.157 ± 0.21 kcal/mol | -0.344 ± 0.12 kcal/mol
SAGGSAGGSVIPYFDENAVALLVKGPGDYYRIIFKPNDGYLVLLLPKEVIKSKPIPIGELLKKSAGGSAGGS [r20_90_TrMRF] | 0.948 ± 0.43 kcal/mol | 1.33 ± 0.38 kcal/mol | 0.672 ± 0.11 kcal/mol
SAGGSAGGSVKVYTIEFLGDGKPYLLSIDDNGNFVIYVPNPKNIDAVKKAIPSNYKIVEIKPLSAGGSAGGS [r12_9_TrMRF] | 1.52 ± 0.17 kcal/mol | 2.01 ± 0.13 kcal/mol | 0.989 ± 0.036 kcal/mol
SAGGSAGGSVLPDVLRTLFPDAKVTVKVTEVSETSATVDVEVEVPVPGGSTRRFRLKLEVPLSSAGGSAGGS [r20_78_TrMRF] | 2.14 ± 0.066 kcal/mol | 2.34 ± 0.044 kcal/mol | 1.78 ± 0.029 kcal/mol
SAGGSAGGSVVPVKAVFKLPDGDEVEGLALVDNRPDGSLVVLFQLPGTGETVGSATAELLKVEGSAGGSAGG [r6_254_TrMRF] | 0.638 ± 0.11 kcal/mol | 0.727 ± 0.1 kcal/mol | 0.523 ± 0.032 kcal/mol
SAGGSAGGSVYSAKSPDGYTITISNGGKPITLPVSDPAKAASLTLKTPDGKTATVTIVPASLASAGGSAGGS [r12_730_JUSTAS] | -0.216 ± 0.17 kcal/mol | -0.295 ± 0.23 kcal/mol | -0.229 ± 0.12 kcal/mol
SAGGSAGGSWEWITAEEALKRAREENPPGKPIEFHFEDPWYFTVRFDGEDPNDVTIEWVPLEKSAGGSAGGS [r12_648_TrROS] | 1.4 ± 0.2 kcal/mol | 1.47 ± 0.18 kcal/mol | 1.39 ± 0.087 kcal/mol
SAGGSAGGSWIPLPDGYLIKITEVVPGGIRIKFPDMGNEITIPPGMPIKIKIIPVKDPDGEPISAGGSAGGS [r20_105_TrROS] | 0.9 ± 0.14 kcal/mol | 0.838 ± 0.05 kcal/mol | 1.03 ± 0.056 kcal/mol
SAGGSAGGSWMYKKNPDGKLEPLPPIRPVPIKIPVPINGRWIPVPIWMTVADIDYIIKEFLKNSAGGSAGGS [r20_148_TrROS] | 1.41 ± 0.15 kcal/mol | 0.785 ± 0.15 kcal/mol | 1.48 ± 0.042 kcal/mol
SAGGSAGGSWRTITYEFKLPKPGQTAEDIAKEIMQLFPGVKDIEIKYYPEEGYIKVDIRFRPNSAGGSAGGS [r20_31_TrROS] | 3.13 ± 0.22 kcal/mol | 2.88 ± 0.042 kcal/mol | 3.37 ± 0.2 kcal/mol
SAGGSAGGSYWFSITFKINFWVIDGNRIHPVPIEITILIKIPPIPPDEMKPEPTPDGEPKYDFSAGGSAGGS [r12_1031_TrROS] | 4.29 ± 0.23 kcal/mol | 4.64 ± 0.2 kcal/mol | 2.73 ± 0.15 kcal/mol
SAGGSAGGSYYMIEIEFPDTGQRITFPFKSLEEAKEFLPPGAPIREIEVQPIKPPVDPEQQNESAGGSAGGS [r12_851_TrROS] | 1.24 ± 0.11 kcal/mol | 1.31 ± 0.12 kcal/mol | 0.809 ± 0.054 kcal/mol
SAGGSAGGTATLVLPAAAFPSRPDGSLGLEEIRDVARPIAQEAFGTDDITLDVESHPDGFVTITFSSAGGSA [r15_562_TrMRF] | 0.519 ± 0.072 kcal/mol | 0.197 ± 0.17 kcal/mol | 0.642 ± 0.027 kcal/mol
SAGGSAGGTISFPNATATITVEENSVTITVTNADGQPTTFTIPLPIPKAKPFTLPDGTKLYLIASAGGSAGG [r6_806_TrMRF] | 2.31 ± 0.21 kcal/mol | 2.31 ± 0.16 kcal/mol | 1.94 ± 0.083 kcal/mol
SAGGSAGGTSVADELEEEFKAKGYPAEVTVTKLPDDTTLVTVTVTDPKTGKSTTTTVTVSPAEASAGGSAGG [r6_692_JUSTAS] | 0.861 ± 0.16 kcal/mol | 1.01 ± 0.12 kcal/mol | 1.02 ± 0.076 kcal/mol
SAGGSAGGVERIKKLLEELGAEVVKVEKLENGKTLIYIKVKSEEQREALKALLPEEDIEIIEPESAGGSAGG [r6_83_TrROS_Hall] | 4.43 ± 0.17 kcal/mol | 4.47 ± 0.17 kcal/mol | 4.69 ± 0.58 kcal/mol
SAGGSAGGVKEALEELLKKLKPGEKKTITLEIEVDGKLVKIEIEVLPDGEIKITKIEEIPKEDLSAGGSAGG [r6_87_TrROS_Hall] | 2.47 ± 0.16 kcal/mol | 1.95 ± 0.096 kcal/mol | 2.97 ± 0.12 kcal/mol
